From PMC3985747 (Biochemistry, 2014)

Assays:
[1] = biological target: the molecule itself; test: SEC
[2] = biological target: the molecule itself; test: crystal structure

B1: ArnB (wild type) of Salmonella typhimurium (enzyme, S. typhimurium, UniProt Q8ZNF3 1-385, looked up)
chain: MAEGKMMSDFLPFSRPAMGAEELAAVKTVLDSGWITTGPKNQELEAAFCRLTGNQYAVAVSSATAGMHIALMALGIGEGDEVITPSMTWVSTLNMIVLLGANPVMVDVDRDTLMVTPEHIEAAITPQTKAIIPVHYAGAPADLDAIYALGERYGIPVIEDAAHATGTSYKGRHIGARGTAIFSFHAIKNITCAEGGIVVTDNPQFADKLRSLKFHGLGVDAWDRQSGGRAPQAEVLAPGYKYNLPDLNAAIALAQLQKLDALNARRAAIAAQYHQAMADLPFQPLSLPSWEHIHAWHLFIIRVDEARCGITRDALMASLKTKGIGTGLHFRAAHTQKYYRERFPTLTLPDTEWNSERICSLPLFPDMTESDFDRVITALHQIAGQ
stoichiometry N [1]: 2

B2: ArnB K188A mutant of Salmonella typhimurium (enzyme, S. typhimurium, UniProt Q8ZNF3 1-385, looked up)
chain: MAEGKMMSDFLPFSRPAMGAEELAAVKTVLDSGWITTGPKNQELEAAFCRLTGNQYAVAVSSATAGMHIALMALGIGEGDEVITPSMTWVSTLNMIVLLGANPVMVDVDRDTLMVTPEHIEAAITPQTKAIIPVHYAGAPADLDAIYALGERYGIPVIEDAAHATGTSYKGRHIGARGTAIFSFHAIANITCAEGGIVVTDNPQFADKLRSLKFHGLGVDAWDRQSGGRAPQAEVLAPGYKYNLPDLNAAIALAQLQKLDALNARRAAIAAQYHQAMADLPFQPLSLPSWEHIHAWHLFIIRVDEARCGITRDALMASLKTKGIGTGLHFRAAHTQKYYRERFPTLTLPDTEWNSERICSLPLFPDMTESDFDRVITALHQIAGQ
binding result [2]: binds
